The labels stand for the following.
B1: 3′H9 PR4 (designed binder)
chain: EVVAATPTSLLISWRHPHFPTRYYRITYGETGGNSPVQEFTVPLQPPTATISGLKPGVDYTITVYAVTHGPYDQVLLTPISINYRT
B2: 4′G12 PR4 (designed binder)
chain: B1 chain with H69V, G70A, P71W, Y72N, Q74H, V75E, L76I, L77Y
B3: 4′B3 PR4 (designed binder)
chain: B1 chain with H69M, G70A, P71Q, Y72N, D73N, Q74R, V75E
B4: 4′D6 PR4 (designed binder)
chain: B1 chain with H69M, G70A, P71Q, Y72N, Q74H, V75E, L77M
B5: 4F4 PR3 (designed binder)
chain: B1 chain with H69L, G70A, P71Q, Y72N, Q74R, V75E, L77I
B6: 4′B11 PR4 (designed binder)
chain: B1 chain with H69M, G70A, P71H, Y72N, Q74H, V75E
B7: 4′E7 PR4 (designed binder)
chain: B1 chain with H69W, G70A, P71Q, Y72N, Q74H, V75E
B8: 4B11 PR3 (designed binder)
chain: B1 chain with H69V, P71Q, Y72N, D73N, Q74H, V75E, L77I
B9: 4′B7 PR4 (designed binder)
chain: B1 chain with H69V, G70A, P71Q, Y72N, D73N, Q74H, V75E
B10: 4′G4 PR4 (designed binder)
chain: B1 chain with H69V, G70A, P71Q, Y72N, Q74R, V75E
B11: 4C9 PR3 (designed binder)
chain: B1 chain with H69L, G70A, P71Q, Y72N, Q74H, V75E
B12: 4′D8 PR4 (designed binder)
chain: B1 chain with H69L, G70A, P71Q, Y72N, D73G, Q74H, V75E, L77Y
B13: 4H5 PR3 (designed binder)
chain: B1 chain with H69V, G70A, P71Q, Y72N, D73G, Q74H, V75E, L77I
B14: 4′C9 PR4 (designed binder)
chain: B1 chain with H69L, Y72N, Q74H, V75E, L77M
B15: 3′H10 PR4 (designed binder)
chain: B1 chain with H69W, G70A, P71W, Y72N, Q74H, V75E, L77M
B16: 3′H11 PR4 (designed binder)
chain: B1 chain with H69L, G70A, P71H, Y72N, D73G, Q74N, V75E
B17: 4′H7 PR4 (designed binder)
chain: B1 chain with H69L, G70A, P71H, Y72N, Q74H, V75E
B18: 4′C5 PR4 (designed binder)
chain: B1 chain with H69L, P71L, Y72N, Q74H, V75E, L77I
B19: 4′A5 PR4 (designed binder)
chain: B1 chain with H69L, G70A, P71Q, Y72N, Q74H, V75E
B20: 4′H5 PR4 (designed binder)
chain: B1 chain with H69L, G70A, P71Q, Y72N, D73G, Q74H, V75E, L77F
B21: 4′B8 PR4 (designed binder)
chain: B1 chain with H69V, G70A, P71Q, Y72N, Q74H, V75K, L77F, T78I
B22: 4′H12 PR4 (designed binder)
chain: B1 chain with H69V, G70A, P71H, Y72N, Q74H, V75E
B23: 2′E4-PR4 (designed binder)
chain: VSDVPRDLEVVAATPTSLLISWRHPHFPTRYYRITYGETGGNSPVQEFTVPLQPPTATISGLKPGVDYTITVYAVTVHWNGHELMTPISINYRT
B24: 2′H4-PR4 (designed binder)
chain: B23 chain with H78G, W79P, G81E, H82R, E83M
B25: 2′D6-PR4 (designed binder)
chain: B23 chain with H78T, W79H, E83P
B26: 2′C6-PR4 (designed binder)
chain: B23 chain with V77M, H78G, W79F, N80M, G81A, T86V
B27: 1′DelA4 PR4 (designed binder)
chain: B1 chain with V64G, H69V, G70A, P71Q, Y72N, Q74H, V75E, L77F
notes: in vitro translated
B28: 3F4 PR3 (designed binder)
chain: B1 chain with H69M, P71Y, Y72E, Q74H, V75E, L77I
notes: in vitro translated
B29: 1′DelG9 PR4 (designed binder)
chain: B1 chain with H69V, G70A, P71Q, Y72S, Q74H, V75E, L77M
notes: in vitro translated
B30: 3F11 PR3 (designed binder)
chain: B1 chain with H69V, P71L, Y72T, Q74H
notes: in vitro translated
B31: 1′DelH9 PR4 (designed binder)
chain: B1 chain with H69V, P71Q, Y72N, Q74H, V75E, L77I
notes: in vitro translated
B32: 1′DelC6 PR4 (designed binder)
chain: B1 chain with H69V, G70A, P71Q, Y72N, D73E, Q74H, V75E
notes: in vitro translated
B33: 3E6 PR3 (designed binder)
chain: B1 chain with H69V, G70P, P71Q, Y72N, D73G, Q74H, V75E, L77I, P79M
notes: in vitro translated
B34: 3F5 PR3 (designed binder)
chain: B1 chain with H69V, G70A, P71Y, Y72N, D73E, Q74H, V75E, L77Y
notes: in vitro translated
B35: 3A8 PR3 (designed binder)
chain: B1 chain with H69E, G70A, P71H, Y72H, D73G, Q74H, V75E, L77M, T78I
notes: in vitro translated
B36: 2′DelB9 PR4 (designed binder)
chain: B1 chain with H69V, Y72T, Q74H, V75E
notes: in vitro translated
B37: 3D4 PR3 (designed binder)
chain: B1 chain with H69V, P71W, Y72N, Q74H, V75E, L77I
notes: in vitro translated
B38: 3H9 PR3 (designed binder)
chain: B1 chain with H69V, G70S, P71Q, Y72Q, D73N, Q74H, V75E
notes: in vitro translated
B39: 2′DelB10 PR4 (designed binder)
chain: B1 chain with H69V, G70T, P71H, Y72N, Q74H, V75E
notes: in vitro translated
B40: 2′DelB11 PR4 (designed binder)
chain: B1 chain with H69V, P71Q, Y72N, Q74H, V75E, L77M
notes: in vitro translated
B41: 1′DelG11 PR4 (designed binder)
chain: B1 chain with H69L, G70A, P71Q, Y72N, D73G, Q74H, L77I
notes: in vitro translated
B42: 1′DelH7 PR4 (designed binder)
chain: B1 chain with H69V, P71Q, Y72N, V75E
notes: in vitro translated
B43: 3G10 PR3 (designed binder)
chain: B1 chain with H69V, G70V, P71H, Y72N, D73G, Q74H, V75E, L76I
notes: in vitro translated
B44: 3C5 PR3 (designed binder)
chain: B1 chain with H69G, G70D, P71H, Y72N, Q74R, V75E, L77M
notes: in vitro translated
B45: 3D11 PR3 (designed binder)
chain: B1 chain with H69L, P71Q, Y72E, D73N, V75E, L77I
notes: in vitro translated
B46: 1′DelD3 PR4 (designed binder)
chain: B1 chain with H69L, G70A, P71Q, Y72N, D73N, Q74H, V75E, L77I
notes: in vitro translated
B47: 1′DelC5 PR4 (designed binder)
chain: B1 chain with H69L, G70A, P71Q, Y72N, Q74H, V75E, L76I, L77M
notes: in vitro translated
B48: 1′DelB10 PR4 (designed binder)
chain: B1 chain with H69V, G70A, P71R, Y72N, Q74H, V75E, L77M
notes: in vitro translated

From patent US20120283184A1 (published 2012) come the findings set out here.

Numbering of substitutions follows the chain as printed.

One experiment concerns the target T1, human vascular endothelial growth factor receptor-2 Fc chimera (KDR-Fc) (human, UniProt P35968 20-764).
T1 construct: range 1-764; also called human VEGFR-2; not shown: human IgG1 Fc
Put plainly: radioactive equilibrium binding, 1 nM KDR-Fc, % of input. Here is the method:
(§1) To prepare ³⁵S-labeled binding proteins for analysis, mRNA was prepared as described above for RNA-protein fusion production but the linker ligation step was omitted. The mRNA was expressed using rabbit reticulocyte lysate translation kit (Ambion) in the presence of ³⁵S-labeled Met at 30° C. for 1 hour. Expressed protein was purified on M2-agarose Flag beads (Sigma) as described above. This procedure produced the encoded protein without the nucleic acid tail. In a direct binding assay, VEGF-R2-Fc fusions in concentrations ranging from 0 to 200 nM were added to a constant concentration of the purified protein (0.2 or 0.5 nM) and incubated at 30° C. for 1 hour in buffer B. The receptor-binder complexes were captured using Protein A magnetic beads for another 10 minutes at room temperature using a Kingfisher™ The beads were washed with six reaction volumes of buffer B. The protein was eluted from the beads with 100 μL of 0.1 M KOH. 50 μL of the reaction mixture and elution were dried onto a LumaPlate-96 (Packard) and the amount of ³⁵S on the plate was measured using a TopCount NXT instrument (Packard). The amount of fibronectin-based scaffold protein bound to the target was estimated as a percent of radioactivity eluted from Protein A magnetic beads compare to radioactivity in the reaction mixture. Nonspecific binding of fibronectin-based scaffold proteins to the beads was determined by measuring binding in the absence of KDR-Fc and represented less than 1-2% of the input. Specific binding was obtained through subtraction of nonspecific binding from total binding. Data was analyzed using the GraphPad Prizm software (GraphPad Software, Inc, San Diego, Calif.), fitted using a one site, non-linear binding equation.
T1 sequence (P35968 20-764 limits assumed, change not shown, form in doubt): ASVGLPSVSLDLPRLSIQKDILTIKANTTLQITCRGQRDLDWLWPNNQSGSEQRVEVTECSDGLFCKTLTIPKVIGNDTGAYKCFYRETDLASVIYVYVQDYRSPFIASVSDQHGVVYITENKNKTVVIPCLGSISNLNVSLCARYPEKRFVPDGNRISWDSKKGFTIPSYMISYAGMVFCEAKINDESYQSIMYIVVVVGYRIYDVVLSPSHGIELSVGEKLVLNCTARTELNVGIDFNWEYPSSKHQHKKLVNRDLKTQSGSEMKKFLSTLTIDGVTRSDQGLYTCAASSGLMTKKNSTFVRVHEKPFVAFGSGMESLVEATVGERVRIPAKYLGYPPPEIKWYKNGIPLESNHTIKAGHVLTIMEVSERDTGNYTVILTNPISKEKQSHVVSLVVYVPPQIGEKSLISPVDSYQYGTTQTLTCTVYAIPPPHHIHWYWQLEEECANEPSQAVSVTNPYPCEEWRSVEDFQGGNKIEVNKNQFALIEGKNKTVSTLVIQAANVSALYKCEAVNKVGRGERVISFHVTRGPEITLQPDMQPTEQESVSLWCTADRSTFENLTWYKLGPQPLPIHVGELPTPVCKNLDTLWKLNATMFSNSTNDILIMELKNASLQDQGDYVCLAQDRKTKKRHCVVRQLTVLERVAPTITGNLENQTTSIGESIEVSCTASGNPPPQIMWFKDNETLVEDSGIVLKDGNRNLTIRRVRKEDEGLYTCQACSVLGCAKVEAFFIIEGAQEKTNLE
In the case of B1, the “Binding to 1 nM KDR, %” value amounted to 24%. Same read-out and setting: the figure for B2 is 21%; for B3 it is 42%. Same read-out and setting: the figure for B4 is 14%; for B5 it is 15%. Turning to B6, the “Binding to 1 nM KDR, %” value came to 25%.

For the molecule B7, the “Binding to 1 nM KDR, %” value is 17%. For B8, the “Binding to 1 nM KDR, %” value was 15%. With B9, the “Binding to 1 nM KDR, %” value stood at 16%. B10: the “Binding to 1 nM KDR, %” value was found to be 19%. As to B11, the “Binding to 1 nM KDR, %” value came out at 16%.

Turning to B12, the “Binding to 1 nM KDR, %” value came to 26%.

As to B13, the “Binding to 1 nM KDR, %” value is 14%. Still for that read-out and setting: the figure for B14 is 29%. For the molecule B15, the “Binding to 1 nM KDR, %” value stood at 14%.

For B16, the “Binding to 1 nM KDR, %” value is 39%. Consider B17, for which the “Binding to 1 nM KDR, %” value was found to be 29%.

For B18, the “Binding to 1 nM KDR, %” value was 27%. Same read-out and setting: the result for B19 reads 16%. On the same count and under the same terms, the result for B20 reads 18%. For B21, the “Binding to 1 nM KDR, %” value stood at 20%. Take B22: the “Binding to 1 nM KDR, %” value was found to be 17%. Same read-out and setting: the figure for B23 is 22%. The same measure, in the same setting: the figure for B24 is 17%; for B25 it is 22%; for B26 it is 16%.

The target in the next experiment is T2, human vascular endothelial growth factor receptor-2 Fc chimera (KDR-Fc) (human, UniProt P35968 20-764).
T2 construct: range 1-764; Purchased from R&D Systems; also called hKDR; human VEGF-R2-Fc; not shown: human IgG1 Fc
Put plainly: radioactive equilibrium binding, 1 nM KDR-Fc. As for the experimental part:
as §1
T2 sequence (P35968 20-764 limits assumed, change not shown, form in doubt): as above
As for B27, the “Binding to 1 nM KDR, %” value came out at 13%. Consider B28, for which the “Binding to 1 nM KDR, %” value turned out to be 10%. On to B29, for which the “Binding to 1 nM KDR, %” value was found to be 10%. On the same count and under the same terms, the result for B30 reads 10%. On the same count and under the same terms, the figure for B31 is 10%; for B32 it is 12%. On the same count and under the same terms, the result for B33 reads 12%; that for B34, 11%. As to B35, the “Binding to 1 nM KDR, %” value came out at 12%. The same measure, in the same setting: the result for B36 reads 11%. For the molecule B37, the “Binding to 1 nM KDR, %” value amounted to 10%. Regarding B38, the “Binding to 1 nM KDR, %” value came to 11%. The same measure, in the same setting: the result for B39 reads 11%; that for B40, 11%. Same read-out and setting: the result for B41 reads 11%. B42: the “Binding to 1 nM KDR, %” value stood at 11%. Still for that read-out and setting: the result for B43 reads 10%; that for B44, 12%.

As for B45, the “Binding to 1 nM KDR, %” value was 10%.

Take B46: the “Binding to 1 nM KDR, %” value is 12%. Consider B47, for which the “Binding to 1 nM KDR, %” value is 11%. On the same count and under the same terms, the figure for B48 is 11%.
